This is an account of results in the supplement of paper PMC9112550, “Optimization of the antimicrobial peptide Bac7 by deep mutational scanning” (BMC Biology, 2022).

The subject of this data set is Escherichia coli TOP10. Kind of data set: shrunken log2 fold change of peptide-encoding DNA abundance (4.5 h post-induction vs induction); higher = less antimicrobial activity (less host growth inhibition). As to conditions: time post-induction: 4.5 h; library: site-saturation at positions 5, 18, 19, 20.
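Also: peptides expressed intracellularly from a pBAD plasmid library in pooled LB shake-flask culture, induced with 0.3% L-arabinose, DNA abundance read by NGS, three biological replicates, DESeq2 with apeglm shrinkage.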

Consider RRIRVRPPRLPRPRPRPQHIPRP, for which the “shrunken log2 fold change” value is -0.32.

For the sequence RRIRKRPPRLPRPRPRPDWYPRP, the “shrunken log2 fold change” value was -0.149.

On to RRIRQRPPRLPRPRPRPHYFPRP, for which the “shrunken log2 fold change” value is -0.239.

RRIRYRPPRLPRPRPRPEPVPRP: the “shrunken log2 fold change” value was -0.00973.

RRIRLRPPRLPRPRPRPGGCPRP: the “shrunken log2 fold change” value worked out at 0.177.

In the case of RRIRGRPPRLPRPRPRPNELPRP, the “shrunken log2 fold change” value was determined as 0.552.

As for RRIRIRPPRLPRPRPRPLWMPRP, the “shrunken log2 fold change” value was -0.303.

For RRIRVRPPRLPRPRPRPNEGPRP, the “shrunken log2 fold change” value was -0.00311.

With RRIRERPPRLPRPRPRPPIMPRP, the “shrunken log2 fold change” value was -0.314.

For RRIRWRPPRLPRPRPRPHFSPRP, the “shrunken log2 fold change” value was -0.205.

Take RRIRRRPPRLPRPRPRPGCRPRP: the “shrunken log2 fold change” value is 0.459.

As to RRIRPRPPRLPRPRPRPAQIPRP, the “shrunken log2 fold change” value was 0.175.

As for RRIRIRPPRLPRPRPRPGSSPRP, the “shrunken log2 fold change” value was -0.486.

With RRIRPRPPRLPRPRPRPPGEPRP, the “shrunken log2 fold change” value came out at 0.00468.

In the case of RRIRWRPPRLPRPRPRPASKPRP, the “shrunken log2 fold change” value turned out to be 0.294.

Take RRIRARPPRLPRPRPRPAQIPRP: the “shrunken log2 fold change” value is -0.0241.

Take RRIRERPPRLPRPRPRPAVLPRP: the “shrunken log2 fold change” value worked out at 0.034.

As to RRIRRRPPRLPRPRPRPHVEPRP, the “shrunken log2 fold change” value was -0.162.

RRIRNRPPRLPRPRPRPHEHPRP: the “shrunken log2 fold change” value is -0.155.

As for RRIRPRPPRLPRPRPRPDYEPRP, the “shrunken log2 fold change” value is -0.136.

Regarding RRIRQRPPRLPRPRPRPHQPPRP, the “shrunken log2 fold change” value was 0.00524.

With RRIRNRPPRLPRPRPRPPKEPRP, the “shrunken log2 fold change” value was -0.166.

As to RRIRDRPPRLPRPRPRPQKHPRP, the “shrunken log2 fold change” value was -0.108.

As to RRIRTRPPRLPRPRPRPKARPRP, the “shrunken log2 fold change” value was 0.0672.

As to RRIRGRPPRLPRPRPRPQTSPRP, the “shrunken log2 fold change” value is 0.407.

Regarding RRIRMRPPRLPRPRPRPMMSPRP, the “shrunken log2 fold change” value came out at 0.0456.

Take RRIRARPPRLPRPRPRPFLAPRP: the “shrunken log2 fold change” value is -0.122.

Take RRIRFRPPRLPRPRPRPICSPRP: the “shrunken log2 fold change” value is -0.0437.

Turning to RRIRPRPPRLPRPRPRPLIEPRP, the “shrunken log2 fold change” value was -0.0879.

Turning to RRIRIRPPRLPRPRPRPNVCPRP, the “shrunken log2 fold change” value was -0.204.

With RRIRNRPPRLPRPRPRPNPDPRP, the “shrunken log2 fold change” value was -0.322.

Take RRIRPRPPRLPRPRPRPIDTPRP: the “shrunken log2 fold change” value is -0.35.

In the case of RRIRNRPPRLPRPRPRPNTGPRP, the “shrunken log2 fold change” value was found to be 0.0312.

Consider RRIRERPPRLPRPRPRPERRPRP, for which the “shrunken log2 fold change” value is -0.0345.

On to RRIRFRPPRLPRPRPRPFYTPRP, for which the “shrunken log2 fold change” value was -0.89.

For RRIRQRPPRLPRPRPRPTPSPRP, the “shrunken log2 fold change” value amounted to 0.507.

For RRIRSRPPRLPRPRPRPVIPPRP, the “shrunken log2 fold change” value is -0.156.

As to RRIRPRPPRLPRPRPRPRLGPRP, the “shrunken log2 fold change” value came to 0.586.

Regarding RRIRDRPPRLPRPRPRPYYPPRP, the “shrunken log2 fold change” value is -0.248.

Regarding RRIRERPPRLPRPRPRPANPPRP, the “shrunken log2 fold change” value was -0.0315.

On to RRIRCRPPRLPRPRPRPAEFPRP, for which the “shrunken log2 fold change” value is -0.0616.

As to RRIRGRPPRLPRPRPRPCKEPRP, the “shrunken log2 fold change” value was -0.0407.

Take RRIRDRPPRLPRPRPRPALLPRP: the “shrunken log2 fold change” value stood at 1.02.

RRIRPRPPRLPRPRPRPMELPRP: the “shrunken log2 fold change” value was -0.00106.

As for RRIRARPPRLPRPRPRPRYKPRP, the “shrunken log2 fold change” value came out at 0.0679.

With RRIRGRPPRLPRPRPRPSFHPRP, the “shrunken log2 fold change” value was -0.17.

On to RRIRIRPPRLPRPRPRPEQPPRP, for which the “shrunken log2 fold change” value stood at 0.307.

Take RRIRRRPPRLPRPRPRPACIPRP: the “shrunken log2 fold change” value worked out at 0.542.

As for RRIRRRPPRLPRPRPRPEGQPRP, the “shrunken log2 fold change” value is 0.131.

With RRIRDRPPRLPRPRPRPVKPPRP, the “shrunken log2 fold change” value is -0.0934.

On to RRIRKRPPRLPRPRPRPYSQPRP, for which the “shrunken log2 fold change” value was found to be 0.0349.

For RRIRERPPRLPRPRPRPSIFPRP, the “shrunken log2 fold change” value was -0.343.

With RRIRSRPPRLPRPRPRPCRQPRP, the “shrunken log2 fold change” value was -0.184.

As to RRIRLRPPRLPRPRPRPNPEPRP, the “shrunken log2 fold change” value was found to be 0.0435.

RRIRYRPPRLPRPRPRPTWEPRP: the “shrunken log2 fold change” value was -0.0387.

For RRIRQRPPRLPRPRPRPLNSPRP, the “shrunken log2 fold change” value is -0.0233.

As for RRIRNRPPRLPRPRPRPLIPPRP, the “shrunken log2 fold change” value was -0.208.

RRIRGRPPRLPRPRPRPFFQPRP: the “shrunken log2 fold change” value turned out to be 0.103.

As to RRIRGRPPRLPRPRPRPFCKPRP, the “shrunken log2 fold change” value is 0.0671.

As for RRIRRRPPRLPRPRPRPSMKPRP, the “shrunken log2 fold change” value was -0.434.

In the case of RRIRDRPPRLPRPRPRPQYCPRP, the “shrunken log2 fold change” value was -0.207.

Take RRIRQRPPRLPRPRPRPKIPPRP: the “shrunken log2 fold change” value is -0.0111.

For the sequence RRIRHRPPRLPRPRPRPNLCPRP, the “shrunken log2 fold change” value worked out at 0.0613.

For RRIRLRPPRLPRPRPRPQAHPRP, the “shrunken log2 fold change” value was -0.217.

For RRIRPRPPRLPRPRPRPELMPRP, the “shrunken log2 fold change” value was -0.109.

Take RRIRNRPPRLPRPRPRPLERPRP: the “shrunken log2 fold change” value is 0.0661.

In the case of RRIRSRPPRLPRPRPRPQVFPRP, the “shrunken log2 fold change” value came to 0.0316.

Turning to RRIRERPPRLPRPRPRPSFYPRP, the “shrunken log2 fold change” value was -0.308.

As to RRIRNRPPRLPRPRPRPNISPRP, the “shrunken log2 fold change” value is -0.476.

Turning to RRIRARPPRLPRPRPRPNPWPRP, the “shrunken log2 fold change” value came out at 0.222.

RRIRTRPPRLPRPRPRPIYMPRP: the “shrunken log2 fold change” value is -0.442.

RRIRSRPPRLPRPRPRPHMRPRP: the “shrunken log2 fold change” value is -0.0431.

On to RRIRDRPPRLPRPRPRPNQGPRP, for which the “shrunken log2 fold change” value turned out to be 0.125.

Turning to RRIRIRPPRLPRPRPRPRESPRP, the “shrunken log2 fold change” value is 0.133.

For the sequence RRIRKRPPRLPRPRPRPWGQPRP, the “shrunken log2 fold change” value stood at 0.0379.

As for RRIRRRPPRLPRPRPRPCSLPRP, the “shrunken log2 fold change” value came out at 0.00239.

As for RRIRWRPPRLPRPRPRPDGVPRP, the “shrunken log2 fold change” value was -0.1.

On to RRIRCRPPRLPRPRPRPIPWPRP, for which the “shrunken log2 fold change” value is -0.146.

As for RRIRVRPPRLPRPRPRPVHNPRP, the “shrunken log2 fold change” value was -0.404.

For RRIRKRPPRLPRPRPRPYGWPRP, the “shrunken log2 fold change” value turned out to be 0.05.

On to RRIRMRPPRLPRPRPRPSLKPRP, for which the “shrunken log2 fold change” value stood at 0.359.

Regarding RRIRARPPRLPRPRPRPEPVPRP, the “shrunken log2 fold change” value is 0.512.

For RRIRNRPPRLPRPRPRPMFEPRP, the “shrunken log2 fold change” value was 0.29.

RRIRGRPPRLPRPRPRPHGHPRP: the “shrunken log2 fold change” value was 0.382.

For the sequence RRIRYRPPRLPRPRPRPVQGPRP, the “shrunken log2 fold change” value was -0.0822.

RRIRNRPPRLPRPRPRPSFQPRP: the “shrunken log2 fold change” value is -0.274.

As for RRIRFRPPRLPRPRPRPQAIPRP, the “shrunken log2 fold change” value is 0.043.

As to RRIRHRPPRLPRPRPRPHQSPRP, the “shrunken log2 fold change” value was -0.0258.

Regarding RRIRLRPPRLPRPRPRPAQYPRP, the “shrunken log2 fold change” value is -0.0702.

For the sequence RRIRGRPPRLPRPRPRPWDDPRP, the “shrunken log2 fold change” value came to 0.137.

For RRIRARPPRLPRPRPRPPGMPRP, the “shrunken log2 fold change” value amounted to 0.471.

On to RRIRARPPRLPRPRPRPHVIPRP, for which the “shrunken log2 fold change” value was 0.0726.

As to RRIRERPPRLPRPRPRPYKDPRP, the “shrunken log2 fold change” value was -0.157.

Turning to RRIRLRPPRLPRPRPRPEVMPRP, the “shrunken log2 fold change” value worked out at 0.0474.

As for RRIRRRPPRLPRPRPRPNLIPRP, the “shrunken log2 fold change” value was -0.221.

On to RRIRDRPPRLPRPRPRPAWIPRP, for which the “shrunken log2 fold change” value amounted to 0.0906.

For RRIRDRPPRLPRPRPRPYYVPRP, the “shrunken log2 fold change” value amounted to 0.0365.

Consider RRIRPRPPRLPRPRPRPHSMPRP, for which the “shrunken log2 fold change” value was -0.408.

In the case of RRIRIRPPRLPRPRPRPHHWPRP, the “shrunken log2 fold change” value was -0.18.

For RRIRKRPPRLPRPRPRPNNVPRP, the “shrunken log2 fold change” value is 0.0112.

With RRIRARPPRLPRPRPRPTAAPRP, the “shrunken log2 fold change” value was determined as 1.05.

Turning to RRIRSRPPRLPRPRPRPHLGPRP, the “shrunken log2 fold change” value is -0.385.

Turning to RRIRQRPPRLPRPRPRPRIFPRP, the “shrunken log2 fold change” value was -0.131.

As to RRIRHRPPRLPRPRPRPKPVPRP, the “shrunken log2 fold change” value was 0.239.

As to RRIRCRPPRLPRPRPRPYLIPRP, the “shrunken log2 fold change” value is -0.233.

For the sequence RRIRNRPPRLPRPRPRPVALPRP, the “shrunken log2 fold change” value was -0.0331.

In the case of RRIRTRPPRLPRPRPRPCILPRP, the “shrunken log2 fold change” value is -0.831.

Regarding RRIRRRPPRLPRPRPRPESPPRP, the “shrunken log2 fold change” value stood at 0.5.

On to RRIRPRPPRLPRPRPRPNKYPRP, for which the “shrunken log2 fold change” value is -0.662.

Regarding RRIRTRPPRLPRPRPRPQMLPRP, the “shrunken log2 fold change” value was -0.0274.

For RRIRNRPPRLPRPRPRPMLQPRP, the “shrunken log2 fold change” value is 0.00157.

Consider RRIRSRPPRLPRPRPRPDDLPRP, for which the “shrunken log2 fold change” value worked out at 0.0166.

Turning to RRIRVRPPRLPRPRPRPYCIPRP, the “shrunken log2 fold change” value is -0.27.

As for RRIRNRPPRLPRPRPRPAAWPRP, the “shrunken log2 fold change” value was 0.0193.

For RRIRTRPPRLPRPRPRPSVRPRP, the “shrunken log2 fold change” value is -0.155.

As for RRIRRRPPRLPRPRPRPMANPRP, the “shrunken log2 fold change” value stood at 0.136.

As to RRIRMRPPRLPRPRPRPNAEPRP, the “shrunken log2 fold change” value was -0.0356.

With RRIRPRPPRLPRPRPRPQSKPRP, the “shrunken log2 fold change” value was -0.237.

Consider RRIRCRPPRLPRPRPRPWKYPRP, for which the “shrunken log2 fold change” value was -0.0802.

For the sequence RRIRSRPPRLPRPRPRPVREPRP, the “shrunken log2 fold change” value turned out to be 0.723.

As to RRIRNRPPRLPRPRPRPVCDPRP, the “shrunken log2 fold change” value came to 0.0842.

With RRIRHRPPRLPRPRPRPILNPRP, the “shrunken log2 fold change” value is -0.186.

Take RRIRMRPPRLPRPRPRPLQEPRP: the “shrunken log2 fold change” value is 2.68.

As to RRIRQRPPRLPRPRPRPIFSPRP, the “shrunken log2 fold change” value came out at 0.0638.

On to RRIRFRPPRLPRPRPRPMLDPRP, for which the “shrunken log2 fold change” value was -0.365.
